Assay results taken from PMC2821091.

Target: porcine dentin sialoprotein (DSP) (porcine)
Test: SDS-PAGE and Western blot under oxidizing

porcine dentin sialoprotein (DSP) (natural protein)
stoichiometry N: 2
